Here are results for two substances from patent US20170128544A1.

For this test, the target named is Bb, the active site-bearing fragment of Factor B (human) (UniProt P00751). Nature of the test: surface plasmon resonance, decay-dissociation of the convertase. For orientation: In SPR one partner is held on a chip, and binding of the other changes the refractive index at the surface.
Chain of Bb, the active site-bearing fragment of Factor B (human) (P00751 260-764 limits assumed): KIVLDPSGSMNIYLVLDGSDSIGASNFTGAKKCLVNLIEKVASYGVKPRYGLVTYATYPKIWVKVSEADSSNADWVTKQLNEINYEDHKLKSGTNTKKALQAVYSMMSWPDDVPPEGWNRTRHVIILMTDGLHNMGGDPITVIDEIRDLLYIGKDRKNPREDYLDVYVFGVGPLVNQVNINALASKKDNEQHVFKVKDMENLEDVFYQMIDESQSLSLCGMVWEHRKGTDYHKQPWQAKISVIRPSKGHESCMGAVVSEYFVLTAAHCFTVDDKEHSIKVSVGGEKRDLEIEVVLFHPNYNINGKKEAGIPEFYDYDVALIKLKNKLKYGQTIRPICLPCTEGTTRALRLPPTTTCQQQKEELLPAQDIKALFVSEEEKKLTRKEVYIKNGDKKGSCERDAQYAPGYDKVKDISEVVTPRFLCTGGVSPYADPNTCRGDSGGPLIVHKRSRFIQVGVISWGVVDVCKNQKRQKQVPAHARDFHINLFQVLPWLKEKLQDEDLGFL

Substance “cobra venom factor (CVF), natural (from UniProt Q91132 23-649; Q91132 733-984; Q91132 1264-1642)” had a Half-life at 25° C. (hrs) of the spontaneous decay-dissociation of 19.2 h.
In turn, “humanized cobra venom factor (hCVF) protein HC3-1550b (from UniProt P01024 23-1549; Q91132 1529-1642)” had a Half-life at 25° C. (hrs) of the spontaneous decay-dissociation of 2 h.
